Assay results taken from the supplement of paper PMC10724198.
± gives the standard deviation of the averaged measurements.

Columns and labels:
Saccharomyces cerevisiae [1] = assay: protein stability index of tFT-peptide fusion (C-terminal peptide) (PSI (0-1 scale)); higher = more stable (slower turnover)
Experimental: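 MPS profiling in S. cerevisiae of the tFT-X12 degron library: putative degron peptides plus stable controls, 12 aa, fused to the C-terminus of a sfGFP-mCherry timer. Cells are FACS-sorted into 8 mCherry/sfGFP bins and deep-sequenced. PSI runs from 0 (unstable) to 1 (stable). Backgrounds are wild type, das1Δ and doa10Δ at 30 °C, and wild type, das1Δ, cdc34-1 and cdc53-1 at 37 °C; 2-3 technical replicates each.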

Saccharomyces cerevisiae [2] = assay: as above; settings: genetic background: wild type; temperature: 30 C
[3] = genetic background: cdc34-1, temperature: 37 C
[4] = genetic background: cdc53-1, temperature: 37 C
[5] = genetic background: das1 deletion, temperature: 30 C
[6] = genetic background: das1 deletion, temperature: 37 C
[7] = genetic background: doa10 deletion, temperature: 30 C
[8] = genetic background: wild type, temperature: 30 C
[9] = genetic background: wild type, temperature: 37 C
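Note: PSI is a weighted mean of sequencing reads over stability bins, variants kept only with over 10 reads, mCherry proximal and sfGFP distal, peptide attached via GGGS linker.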

Row | Sequence | protein stability index (Saccharomyces cerevisiae [1]; [3]) | protein stability index (Saccharomyces cerevisiae [1]; [4]) | protein stability index (Saccharomyces cerevisiae [1]; [5]) | protein stability index (Saccharomyces cerevisiae [1]; [6]) | protein stability index (Saccharomyces cerevisiae [1]; [7]) | protein stability index (Saccharomyces cerevisiae [1]; [8]) | protein stability index (Saccharomyces cerevisiae [1]; [9]) | protein stability index (Saccharomyces cerevisiae [2])
1 | LVGTRTIFCFLH | 0.618 ± 0.017 | 0.721 ± 0.0084 | 0.57 ± 0.018 | 0.741 ± 0.027 | 0.207 ± 0.0076 | 0.218 ± 0.026 | 0.401 ± 0.0054 | 0.3164 ± 0.002
2 | VYVVCFRLGCWV | 0.222 ± 0.0066 | 0.321 ± 0.013 | 0.199 ± 0.035 | 0.39 ± 0.0064 | 0.172 ± 0.0025 | 0.2 ± 0.022 | 0.371 ± 0.0082 | 0.297 ± 0.036
3 | GCIMHLTIYVRD | 0.302 ± 0.03 | 0.3761 ± 0.0008 | 0.265 ± 0.026 | 0.439 ± 0.032 | 0.2235 ± 0.0014 | 0.26 ± 0.028 | 0.4088 ± 0.0016 | 0.322 ± 0.0096
4 | CCNVLFRVCLFL | 0.459 ± 0.0095 | 0.526 ± 0.059 | 0.405 ± 0.042 | 0.542 ± 0.022 | 0.277 ± 0.0045 | 0.304 ± 0.025 | 0.4334 ± 0.0041 | 0.353 ± 0.048
5 | VFSWLAFGFFCS | 0.647 ± 0.0029 | 0.69 ± 0.012 | 0.61 ± 0.022 | 0.6821 ± 0.0028 | 0.588 ± 0.024 | 0.601 ± 0.023 | 0.642 ± 0.033 | 0.557 ± 0.091
6 | LASCRIVVIYSI | 0.521 ± 0.029 | 0.52 ± 0.15 | 0.349 ± 0.036 | 0.5746 ± 0.0025 | 0.163 ± 0.0081 | 0.202 ± 0.022 | 0.364 ± 0.029 | 0.33 ± 0.068
7 | VRSTFVLGRWFA | 0.57 ± 0.0089 | 0.711 ± 0.0072 | 0.653 ± 0.029 | 0.7495 ± 0.0021 | 0.133 ± 0.0064 | 0.159 ± 0.018 | 0.312 ± 0.083 | 0.228 ± 0.062
8 | ISFSLALSVSFS | 0.5219 ± 0.0035 | 0.532 ± 0.014 | 0.502 ± 0.015 | 0.478 ± 0.029 | 0.567 ± 0.05 | 0.528 ± 0.011 | 0.469 ± 0.013 | 0.49 ± 0.0052
9 | GYGAVHWWFWLF | 0.604 ± 0.052 | 0.6675 ± 0.0043 | 0.587 ± 0.04 | 0.7066 ± 0.006 | 0.1934 ± 0.0013 | 0.214 ± 0.026 | 0.3761 ± 0.0034 | 0.31 ± 0.027
10 | NARNPKKNRDQI | 0.697 ± 0.037 | 0.7226 ± 0.0072 | 0.627 ± 0.026 | 0.705 ± 0.032 | 0.633 ± 0.02 | 0.666 ± 0.058 | 0.70322 ± 0.00025 | 0.524 ± 0.093
11 | YFFGWSVSLLIL | 0.133 ± 0.014 | 0.251 ± 0.039 | 0.192 ± 0.035 | 0.322 ± 0.0091 | 0.108 ± 0.015 | 0.124 ± 0.021 | 0.2397 ± 0.0019 | 0.184 ± 0.019
12 | LMFCPPLLRVAL | 0.44 ± 0.023 | 0.4421 ± 0.0031 | 0.372 ± 0.03 | 0.526 ± 0.015 | 0.399 ± 0.026 | 0.392 ± 0.018 | 0.473 ± 0.0086 | 0.485 ± 0.013
13 | FLLLSCLVRRSF | 0.508 ± 0.054 | 0.6 ± 0.018 | 0.454 ± 0.017 | 0.611 ± 0.01 | 0.404 ± 0.014 | 0.429 ± 0.0061 | 0.549 ± 0.018 | 0.4628 ± 0.00075
14 | VSFHLGVIFALS | 0.547 ± 0.018 | 0.5268 ± 0.0037 | 0.401 ± 0.026 | 0.536 ± 0.0072 | 0.268 ± 0.0063 | 0.343 ± 0.021 | 0.46 ± 0.013 | 0.39 ± 0.0086
15 | DLDLLTKFSKEC | 0.702 ± 0.028 | 0.77 ± 0.013 | 0.628 ± 0.043 | 0.743 ± 0.028 | 0.4783 ± 0.0024 | 0.503 ± 0.025 | 0.656 ± 0.018 | 0.466 ± 0.03
16 | AGMIKLRKKKVL | 0.6487 ± 0.003 | 0.7395 ± 0.003 | 0.634 ± 0.021 | 0.7208 ± 0.0012 | 0.208 ± 0.026 | 0.248 ± 0.041 | 0.452 ± 0.0093 | 0.417 ± 0.042
17 | FSARPFLYSFRP | 0.694 ± 0.024 | 0.743 ± 0.0082 | 0.667 ± 0.025 | 0.7416 ± 0.0052 | 0.653 ± 0.037 | 0.654 ± 0.0083 | 0.711 ± 0.0089 | 0.028 ± 0.0092
18 | VGVVGVRVLVVV | 0.0407 ± 0.0012 | 0.1 ± 0.018 | 0.166 ± 0.032 | 0.19025 ± 0.00017 | 0.142 ± 0.01 | 0.154 ± 0.024 | 0.17315 ± 8e-05 | 0.2026 ± 0.0015
19 | SIFSIFFLVRNF | 0.4535 ± 0.0038 | 0.551 ± 0.029 | 0.436 ± 0.037 | 0.59 ± 0.023 | 0.117 ± 0.0077 | 0.12 ± 0.039 | 0.195 ± 0.028 | 0.217 ± 0.0043
20 | MCFFVFVLFLFC | 0.307 ± 0.034 | 0.398 ± 0.12 | 0.281 ± 0.029 | 0.406 ± 0.013 | 0.2977 ± 0.0013 | 0.269 ± 0.033 | 0.377 ± 0.011 | 0.33 ± 0.015
21 | LLLSSILLILSS | 0.357 ± 0.033 | 0.409 ± 0.0057 | 0.29 ± 0.018 | 0.465 ± 0.023 | 0.2369 ± 0.00081 | 0.272 ± 0.024 | 0.459 ± 0.063 | 0.34 ± 0.019
22 | LVTRVFVYFSIG | 0.498 ± 0.061 | 0.583 ± 0.035 | 0.403 ± 0.034 | 0.554 ± 0.036 | 0.323 ± 0.0055 | 0.35 ± 0.034 | 0.514 ± 0.0066 | 0.413 ± 0.012
23 | VPLVQRARLRLF | 0.639 ± 0.059 | 0.715 ± 0.02 | 0.607 ± 0.027 | 0.732 ± 0.026 | 0.109 ± 0.015 | 0.114 ± 0.012 | 0.206 ± 0.028 | 0.146 ± 0.025
24 | AGLAPCFLLFVC | 0.261 ± 0.027 | 0.343 ± 0.019 | 0.3 ± 0.033 | 0.44 ± 0.0063 | 0.0908 ± 0.024 | 0.0981 ± 0.021 | 0.0938 ± 0.026 | 0.133 ± 0.019
25 | LSLSLQVVVFSM | 0.438 ± 0.034 | 0.497 ± 0.022 | 0.317 ± 0.024 | 0.484 ± 0.0062 | 0.3203 ± 0.00038 | 0.322 ± 0.021 | 0.457 ± 0.022 | 0.467 ± 0.022
26 | ESCVRSRRVLLC | 0.564 ± 0.063 | 0.71 ± 0.032 | 0.621 ± 0.013 | 0.73 ± 0.027 | 0.129 ± 0.044 | 0.127 ± 0.017 | 0.196 ± 0.0075 | 0.221 ± 0.026
27 | HIVWVLQRAFRG | 0.511 ± 0.058 | 0.516 ± 0.0086 | 0.493 ± 0.021 | 0.504 ± 0.02 | 0.506 ± 0.038 | 0.488 ± 0.016 | 0.485 ± 0.018 | 0.509 ± 0.039
28 | YRNRKMYCITNC | 0.682 ± 0.03 | 0.737 ± 0.017 | 0.636 ± 0.038 | 0.743 ± 0.018 | 0.207 ± 0.044 | 0.26 ± 0.017 | 0.51 ± 0.058 | 0.423 ± 0.014
